From paper PMC8062686, “Structural variation at the maize WUSCHEL1 locus alters stem cell organization in inflorescences”

Molecular target: T1, GST-ZmRR8 DNA-binding domain (Zea mays, UniProt Q9AV93 191-262)
T1 sequence: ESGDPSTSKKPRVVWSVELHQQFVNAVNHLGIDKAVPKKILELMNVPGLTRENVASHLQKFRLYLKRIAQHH
Experiment: EMSA; 1x LightShift Binding Buffer, 50 ng/uL poly(dI/dC), 2.5% glycerol, room temperature 20 min, 6% DNA retardation gel; pH and salt not given
Settings: protein: recombinant; tags: GST (pET-60-DEST)

B1: m119 bp (three AGATAT to TTTTTT) (dsDNA)
DNA 1: TAATTTTTTCGTCGTATCCCATGATCCTTCGTGTGTCAACTTCACTTGTCTCTCTCCAAATTTTTTCGTCGTATCCCATGATCCTTCCTCCCCTCCAAATTTTTTCGTCGTATCACAGTA
DNA 2: TACTGTGATACGACGAAAAAATTTGGAGGGGAGGAAGGATCATGGGATACGACGAAAAAATTTGGAGAGAGACAAGTGAAGTTGACACACGAAGGATCATGGGATACGACGAAAAAATTA
binding result: no binding
